Measured values from patent US20220363757A1 (SYMPHOGEN A S, published 2022).
Residue numbers refer to the chain shown, from its start.

T1: human LAG-3 domain 1-2 Fc fusion, chimeric construct #28 (mutated region AA 84-90, cynomolgus backmutations) (human, UniProt P18627 23-266)
T1 construct: not shown: human IgG1 Fc, AA P101-K330
T1 chain: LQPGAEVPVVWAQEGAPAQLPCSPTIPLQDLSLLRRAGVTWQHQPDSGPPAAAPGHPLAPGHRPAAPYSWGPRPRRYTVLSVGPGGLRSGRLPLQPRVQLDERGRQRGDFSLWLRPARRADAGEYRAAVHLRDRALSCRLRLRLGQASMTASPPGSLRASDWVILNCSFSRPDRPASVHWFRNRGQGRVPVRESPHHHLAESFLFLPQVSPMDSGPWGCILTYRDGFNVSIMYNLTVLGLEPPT

T2: human LAG-3 domain 1-2 Fc fusion, chimeric construct #18 (mutated region AA 114-119) (human, UniProt P18627 23-266)
T2 construct: not shown: human IgG1 Fc, AA P101-K330
T2 chain: T1 chain with H62P, R63H, Y68S, L92Q, Q95L, P96S, R97H

T3: human LAG-3 domain 1-2 Fc fusion, chimeric construct #2 (mutated region AA 29-30) (human, UniProt P18627 23-266)
T3 construct: not shown: human IgG1 Fc, AA P101-K330
T3 chain: T1 chain with V7L, P8S, H62P, R63H, Y68S

T4: human LAG-3 domain 1-2 Fc fusion, chimeric construct #16 (mutated region AA 98-105) (human, UniProt P18627 23-266)
T4 construct: not shown: human IgG1 Fc, AA P101-K330
T4 chain: T1 chain with H62P, R63H, Y68S, R76S, T78V, S81M, V82R, G83A

T5: human LAG-3 domain 1-2 Fc fusion, chimeric construct #17 (mutated region AA 114-117) (human, UniProt P18627 23-266)
T5 construct: not shown: human IgG1 Fc, AA P101-K330
T5 chain: T1 chain with H62P, R63H, Y68S, L92Q, Q95L

T6: human LAG-3 domain 1-2 Fc fusion, chimeric construct #1 (mutated region AA 23-30) (human, UniProt P18627 31-266)
T6 construct: not shown: human IgG1 Fc, AA P101-K330
T6 sequence: T1 chain with L1S, Q2G, A5K, V7L, P8S, H62P, R63H, Y68S

T7: human LAG-3 domain 1-2 Fc fusion, chimeric construct #22 (mutated region AA 140-142) (human, UniProt P18627 23-266)
T7 construct: not shown: human IgG1 Fc, AA P101-K330
T7 chain: T1 chain with H62P, R63H, Y68S, R118T, A120K

T8: human LAG-3 ECD human IgG1 Fc fusion (human, UniProt P18627 23-450)
T8 construct: not shown: human IgG1 Fc, AA P101-K330
T8 sequence: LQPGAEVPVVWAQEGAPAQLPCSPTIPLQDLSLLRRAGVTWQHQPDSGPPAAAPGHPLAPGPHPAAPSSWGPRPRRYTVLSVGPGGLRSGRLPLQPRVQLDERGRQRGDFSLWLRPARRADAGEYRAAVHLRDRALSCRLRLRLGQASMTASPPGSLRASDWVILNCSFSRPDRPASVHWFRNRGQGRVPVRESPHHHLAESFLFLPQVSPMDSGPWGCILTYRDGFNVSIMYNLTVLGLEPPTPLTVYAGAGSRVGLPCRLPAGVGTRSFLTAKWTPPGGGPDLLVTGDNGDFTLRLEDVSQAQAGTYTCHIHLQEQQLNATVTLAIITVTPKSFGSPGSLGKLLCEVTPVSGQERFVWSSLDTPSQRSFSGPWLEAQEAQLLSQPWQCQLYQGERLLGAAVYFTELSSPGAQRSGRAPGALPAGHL

B1: Fab fragment of antibody 15011 (Fab, V domains shown, not shown: a dimerising Fc or GST)
VH: EVQLLESGGGLVQPGGSLRLSCAASGFDFRSYAMMWVRQAPGKGLEWVGGINGEVGGSNTYYAPAVKGRATISRDNSKNTLYLQMNSLRAEDTAVYYCVKGAGACGICNDDIDAWGQGTLVTVSS
VL: SYELTQDPAVSVALGQTVRITCSGAGSYAGSYYYGWHQQKPGQAPVTVIYDNDKRPSNIPDRFSGSSSGNTASLTITGAQAEDEADYYCGSTNDNDDGGLFGSGTKVTVLG
notes: monomeric Fab made by GingisKHAN digestion of the IgG1
B2: Fab fragment of antibody 15532 (Fab, V domains shown, not shown: a dimerising Fc or GST)
VH: QVQLQQWGAGLLRPSETLSLTCAVYGESFSGYYWNWIRQPPGKGLEWIGEINHSGSTNYNPSLKSRVTISVDTSKTQFSLKLSSVTAADTAVYYCARGWDLLDWNDYWNEYWGQGTLVTVSS
VL: EIVLTQSPATLSLSPGERATLSCRASQSVSSYLAWYQQKPGQAPRLLIYDASNRATGIPARFSGSGSGTDFTLTISSLEPEDFAVYYCQQRSNWPLTFGGGTKVEIKR
notes: as for B1
B3: Fab fragment of antibody 15431 (Fab, V domains shown, not shown: a dimerising Fc or GST)
VH: QVQLQQSGPGLVKPSQTLSLTCAISGDSVSSNSAAWNWIRQSPSRGLEWLGRTYYRSKWYNDYAVSVKSRITINPDTSKNQFSLQLNSVTPEDTAVYYCARDDDWNDFDYWGQGTLVTVSS
VL: B2 VL
notes: as for B1
B4: Fab fragment of antibody 15572 (Fab, V domains shown, not shown: a dimerising Fc or GST)
VH: QLQLQESGPGLVKPSETLSLTCTVSGDSISSSSYYWGWIRQPPGKGLEWIGSIFYSGNTYYNPSLKSRVTISVDTSKNQFSLKLSSVTAADTAVYYCAREDDFLTDYYGAFDIWGQGTMVTVSS
VL: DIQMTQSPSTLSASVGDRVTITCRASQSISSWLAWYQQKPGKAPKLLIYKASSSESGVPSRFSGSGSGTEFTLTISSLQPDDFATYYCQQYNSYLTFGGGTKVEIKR
notes: as for B1

Columns and labels:
[1] = target: T1, human LAG-3 domain 1-2 Fc fusion, …; test: SPR, Fab over captured mutant LAG-3-Fc;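 also: LAG-3 fusion proteins captured on an anti-human IgG Fc sensor chip and read on an IBIS MX96 biosensor, Fab association and dissociation each 15 min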
Description: (§1) The LAG-3 fusion proteins were immobilized onto a G-a-hu-IgG Fc SensEye® (Ssens BV, The Netherlands) for 15 minutes using a Continuous Flow Microspotter (CFM, Wasatch Microfluidics, Salt Lake City, US). After spotting, the SensEye® was positioned in an IBIS MX96 biosensor and captured proteins were evaluated for binding affinity. […] Fab association was performed for 15 minutes and antigen dissociation was performed for 15 minutes. The recorded binding responses were fitted to a simple Langmuir 1:1 binding model with Scrubber 2 software for calculation of the on-rate (kon or ka), off-rate (koff or kd) and affinity (KD) constants.

[2] = target: T2, human LAG-3 domain 1-2 Fc fusion, …; test: SPR, Fab over captured mutant LAG-3-Fc;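 also: LAG-3 fusion proteins captured on an anti-human IgG Fc sensor chip and read on an IBIS MX96 biosensor, Fab association and dissociation each 15 min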
Description: as §1

[3] = target: T3, human LAG-3 domain 1-2 Fc fusion, …; test: SPR, Fab over captured mutant LAG-3-Fc;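 also: LAG-3 fusion proteins captured on an anti-human IgG Fc sensor chip and read on an IBIS MX96 biosensor, Fab association and dissociation each 15 min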
Description: as §1

[4] = target: T4, human LAG-3 domain 1-2 Fc fusion, …; test: SPR, Fab over captured mutant LAG-3-Fc;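 also: LAG-3 fusion proteins captured on an anti-human IgG Fc sensor chip and read on an IBIS MX96 biosensor, Fab association and dissociation each 15 min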
Description: as §1

[5] = target: T5, human LAG-3 domain 1-2 Fc fusion, …; test: SPR, Fab over captured mutant LAG-3-Fc
Description: as §1

[6] = target: T6, human LAG-3 domain 1-2 Fc fusion, …; test: SPR, Fab over captured mutant LAG-3-Fc
Description: as §1

[7] = target: T7, human LAG-3 domain 1-2 Fc fusion, …; test: SPR, Fab over captured mutant LAG-3-Fc
Description: as §1

[8] = target: T8, human LAG-3 ECD human IgG1 Fc fusion; test: SPR, Fab over captured LAG-3 ECD-Fc
Description: Antigens were purified using standard procedures and captured onto an G-a-hu-IgG Fc SensEye® (Ssens BV, The Netherlands) for 15 minutes using a Continuous Flow Microspotter (CFM, Wasatch Microfluidics, Salt Lake City, US). After spotting, the SensEye® was positioned in the IBIS MX96 biosensor and remaining capture sites blocked. […] Fab association was performed for 15 minutes and antigen dissociation was performed for 15 minutes. The recorded binding responses were fitted to a simple Langmuir 1:1 binding model with Scrubber 2 software for calculation of the on-rate (kon or ka), off-rate (koff or kd) and affinity (KL) constants.

Row | Binder | KD mutant/KD wild type [1] [fold] | KD mutant/KD wild type [2] [fold] | KD mutant/KD wild type [3] [fold] | KD mutant/KD wild type [4] [fold] | KD mutant/KD wild type [5] [fold] | KD mutant/KD wild type [6] [fold] | KD mutant/KD wild type [7] [fold] | Kd [8] [nM] | koff [8] [s⁻¹] | kon [8] [M⁻¹ s⁻¹] | binding result [3] | binding result [4] | binding result [6]
1 | B1 | 0.6 | 2.1 | 0.5 | 7.2 | 2.6 | 0.5 | 0.5 | 4.3 | 0.00048 | 110000 |  |  | 
2 | B2 | 4.8 | 1.1 | 3.1 | 6.3 | 1.4 | 3.2 | 1.3 | 5.8 | 0.00065 | 110000 |  |  | 
3 | B3 | 1.1 | 0.6 |  |  | 0.5 |  | 0.6 | 30 | 0.002 | 66000 | no binding (tested: 300 nM) | no binding (tested: 300 nM) | no binding (tested: 300 nM)
4 | B4 | 0.5 | 0.6 |  |  | 0.5 |  | 0.8 | 27 | 0.003 | 110000 | no binding (tested: 300 nM) | no binding (tested: 300 nM) | no binding (tested: 300 nM)
